Test results published in the supplement of paper PMC7877785.
± gives the uncertainty stated by the source.

Assay: self-splicing fitness, log relative to wild type (ln ratio); higher = more splicing; Tetrahymena group I intron in knt gene, E. coli kanamycin selection, DiMSum; sequences stand for … in CUCUCU…GGAGGGAAAAGUUAUCAGGCAUGCACCUGGUAGCUAGUCUUUAAACCAAUAGAUUGCAUCGGUUUAAAAGGCAAGACCGUCAAAUUGCGGGAAAGGGGUCAACAGCCGUUCAGUACCAAGUCUCAGGGGAAACUUUGAGAUGGCCUUGCAAAGGGUAUGGUAAUAAGCUGACGGACAUGGUCCUAACCACGCAGCCAAGUCCUAAGUCAACAGAUCUUCUGUUGAUAUGGAUGCAGUUCACAGACUAAAUGUCGGUCGGGGAAGAUGUAUUCUUCUCAUAAGAUAUAGUCGGACCUCUCCUUAAUGGGAGCUAGCGGAUGAAGUGAUGCAACACUGGAGCCGCUGGGAACUAAUUUGUAUGCGAAAGUAUAUUGAUUAGUUUUGGAGUACUCGUGGUCG
Method in brief: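 The eight P1ex-region nucleotides of an intron in the knt kanamycin-resistance gene on pET-22b(+) were all randomised and the library put into E. coli BL21(DE3). Six replicate transformations were grown overnight at 37°C or 30°C on LB agar with or without 25 μg/mL kanamycin, together with 100 μg/mL carbenicillin, 50 μM IPTG and 0.2% rhamnose. Colonies were pooled and amplicon-sequenced on an Illumina HiSeq 2500. Fitness from DiMSum is the error-weighted combination of wild-type-normalised replicate fold changes, kanamycin over none.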

With CGCUAGCAAUAUUACGUGCU the “self-splicing fitness (ln)” value (30 °C) was -1.82 ± 0.16 and the “self-splicing fitness (ln)” value (37 °C) was -1.63 ± 0.18.
With CGCUAGCAAUAUUACGUGGU the “self-splicing fitness (ln)” value (30 °C) was -3.55 ± 0.27 and the “self-splicing fitness (ln)” value (37 °C) was -2.61 ± 0.26.
In the case of CGCUAGCAAUAUUACGUUAU, the “self-splicing fitness (ln)” value (30 °C) is reported as -4.99 ± 0.32 and the “self-splicing fitness (ln)” value (37 °C) is reported as -3.36 ± 0.26.
With CGCUAGCAAUAUUACGUUCC the “self-splicing fitness (ln)” value (30 °C) was -2.83 ± 0.15 and the “self-splicing fitness (ln)” value (37 °C) was -2.81 ± 0.31.
In the case of CGGAAGCAAUAUUACGAAAG, the “self-splicing fitness (ln)” value (30 °C) is reported as -0.838 ± 0.12 and the “self-splicing fitness (ln)” value (37 °C) is reported as -0.911 ± 0.19.
With CGGAAGCAAUAUUACGAAGG the “self-splicing fitness (ln)” value (30 °C) was -1.17 ± 0.11 and the “self-splicing fitness (ln)” value (37 °C) was -0.983 ± 0.18.
With CGGAAGCAAUAUUACGAAUC the “self-splicing fitness (ln)” value (30 °C) was -3.29 ± 0.3 and the “self-splicing fitness (ln)” value (37 °C) was -2.46 ± 0.29.
With CGGAAGCAAUAUUACGACAC the “self-splicing fitness (ln)” value (37 °C) was -1.66 ± 0.38.
With CGGAAGCAAUAUUACGAGCA the “self-splicing fitness (ln)” value (30 °C) was -2.83 ± 0.24 and the “self-splicing fitness (ln)” value (37 °C) was -1.82 ± 0.18.
With CGGAAGCAAUAUUACGAGUC the “self-splicing fitness (ln)” value (30 °C) was -2.83 ± 0.22 and the “self-splicing fitness (ln)” value (37 °C) was -2.39 ± 0.31.
For CGGAAGCAAUAUUACGAUCC, the “self-splicing fitness (ln)” value (30 °C) was -3.21 ± 0.37 and the “self-splicing fitness (ln)” value (37 °C) was -1.42 ± 0.23.
For CGGAAGCAAUAUUACGCCCA, the “self-splicing fitness (ln)” value (30 °C) was -0.0821 ± 0.13 and the “self-splicing fitness (ln)” value (37 °C) was 0.194 ± 0.2.
For CGGAAGCAAUAUUACGCCCU, the “self-splicing fitness (ln)” value (30 °C) was -0.363 ± 0.13 and the “self-splicing fitness (ln)” value (37 °C) was 0.204 ± 0.15.
In the case of CGGAAGCAAUAUUACGCCGU, the “self-splicing fitness (ln)” value (30 °C) is reported as -2.88 ± 0.44 and the “self-splicing fitness (ln)” value (37 °C) is reported as -1.91 ± 0.28.
In the case of CGGAAGCAAUAUUACGCUAA, the “self-splicing fitness (ln)” value (30 °C) is reported as -2.74 ± 0.17 and the “self-splicing fitness (ln)” value (37 °C) is reported as -3.01 ± 0.29.
With CGGAAGCAAUAUUACGCUUG the “self-splicing fitness (ln)” value (37 °C) was -2.42 ± 0.27.
For CGGAAGCAAUAUUACGCUUU, the “self-splicing fitness (ln)” value (30 °C) was -2.02 ± 0.18 and the “self-splicing fitness (ln)” value (37 °C) was -3.26 ± 0.33.
With CGGAAGCAAUAUUACGGACA the “self-splicing fitness (ln)” value (30 °C) was 0.389 ± 0.13 and the “self-splicing fitness (ln)” value (37 °C) was -0.329 ± 0.15.
For CGGAAGCAAUAUUACGGCCC, the “self-splicing fitness (ln)” value (30 °C) was 0.0304 ± 0.18 and the “self-splicing fitness (ln)” value (37 °C) was 0.0512 ± 0.23.
For CGGAAGCAAUAUUACGGGGC, the “self-splicing fitness (ln)” value (30 °C) was -2.49 ± 0.19 and the “self-splicing fitness (ln)” value (37 °C) was -2.71 ± 0.26.
For CGGAAGCAAUAUUACGUACA, the “self-splicing fitness (ln)” value (30 °C) was -0.615 ± 0.13 and the “self-splicing fitness (ln)” value (37 °C) was -0.219 ± 0.15.
For CGGAAGCAAUAUUACGUACG, the “self-splicing fitness (ln)” value (30 °C) was -3.87 ± 0.24 and the “self-splicing fitness (ln)” value (37 °C) was -2.26 ± 0.21.
For CGGAAGCAAUAUUACGUAGG, the “self-splicing fitness (ln)” value (30 °C) was -0.48 ± 0.078 and the “self-splicing fitness (ln)” value (37 °C) was -1.38 ± 0.12.
With CGGAAGCAAUAUUACGUAUA the “self-splicing fitness (ln)” value (30 °C) was -2.82 ± 0.24 and the “self-splicing fitness (ln)” value (37 °C) was -2.63 ± 0.3.
In the case of CGGAAGCAAUAUUACGUCAG, the “self-splicing fitness (ln)” value (30 °C) is reported as -1.33 ± 0.13 and the “self-splicing fitness (ln)” value (37 °C) is reported as -0.154 ± 0.17.
For CGGAAGCAAUAUUACGUCCA, the “self-splicing fitness (ln)” value (30 °C) was -0.281 ± 0.097 and the “self-splicing fitness (ln)” value (37 °C) was 0.585 ± 0.13.
With CGGAAGCAAUAUUACGUGCU the “self-splicing fitness (ln)” value (30 °C) was -3.85 ± 0.24 and the “self-splicing fitness (ln)” value (37 °C) was -2.32 ± 0.23.
In the case of CGGAAGCAAUAUUACGUUGG, the “self-splicing fitness (ln)” value (30 °C) is reported as -1.89 ± 0.071 and the “self-splicing fitness (ln)” value (37 °C) is reported as -0.688 ± 0.077.
In the case of CGGCAGCAAUAUUACGAAUA, the “self-splicing fitness (ln)” value (37 °C) is reported as -2.07 ± 0.27.
In the case of CGGCAGCAAUAUUACGACCU, the “self-splicing fitness (ln)” value (30 °C) is reported as -0.341 ± 0.089 and the “self-splicing fitness (ln)” value (37 °C) is reported as -0.0632 ± 0.11.
In the case of CGGCAGCAAUAUUACGAUGU, the “self-splicing fitness (ln)” value (30 °C) is reported as -3.85 ± 0.31 and the “self-splicing fitness (ln)” value (37 °C) is reported as -3.14 ± 0.35.
In the case of CGGCAGCAAUAUUACGCAGU, the “self-splicing fitness (ln)” value (30 °C) is reported as -3.02 ± 0.17 and the “self-splicing fitness (ln)” value (37 °C) is reported as -2.07 ± 0.29.
For CGGCAGCAAUAUUACGCGCA, the “self-splicing fitness (ln)” value (30 °C) was -0.939 ± 0.097 and the “self-splicing fitness (ln)” value (37 °C) was -0.247 ± 0.1.
With CGGCAGCAAUAUUACGCGCC the “self-splicing fitness (ln)” value (30 °C) was -4.3 ± 0.43 and the “self-splicing fitness (ln)” value (37 °C) was -3.04 ± 0.47.
In the case of CGGCAGCAAUAUUACGCGCG, the “self-splicing fitness (ln)” value (30 °C) is reported as -2.65 ± 0.22 and the “self-splicing fitness (ln)” value (37 °C) is reported as -1.54 ± 0.23.
In the case of CGGCAGCAAUAUUACGCUUG, the “self-splicing fitness (ln)” value (30 °C) is reported as -2.4 ± 0.15 and the “self-splicing fitness (ln)” value (37 °C) is reported as -2.31 ± 0.23.
In the case of CGGCAGCAAUAUUACGGCAA, the “self-splicing fitness (ln)” value (30 °C) is reported as -1.1 ± 0.083 and the “self-splicing fitness (ln)” value (37 °C) is reported as -1.27 ± 0.1.
For CGGCAGCAAUAUUACGGCCG, the “self-splicing fitness (ln)” value (30 °C) was -3.13 ± 0.39 and the “self-splicing fitness (ln)” value (37 °C) was -1.42 ± 0.39.
